# In patent publication US8722052B2, “Vaccinia virus protein A46 peptide and use thereof” (priority 2008, dated 2014):
# “Also recorded” adds a separate entry of the source.
# Columns and labels:
# TLR4 = assay: LPS-induced TNFα in PMA-differentiated U937 cells, ELISA; assay type: cell-based, human; settings: peptide 5 or 20 μM 1 h before 100 ng/ml LPS, 24 h
# Procedure: FIGS. 3A and B are bar charts showing the effect of peptides derived from A46 on LPS-induced TNFα in human U937 cells. Cells were differentiated with 200 nM PMA and seeded in 96 well plates (2×10^5 cells/ml) 24 hours before treatment. A46 peptides were added to the cells at a concentration of 5 or 20 μM 1 hour before stimulating with 100 ng/ml LPS. Supernatants were collected 24 hours after stimulation and assayed for TNFα by ELISA. No peptides were added into the control wells (black bars). (A) peptides A461-A467 (SEQ ID NO. 17 to 23). (B) peptides A468-A4614 (SEQ ID NO. 24 to 30) (excluding A4612 SEQ ID NO. 28). Data is representative of at least two experiments each performed in triplicate and is expressed as mean±s.d;
# Cytokine and chemokine production from cells or mouse serum was measured by ELISA using Duoset kits from R&D systems, according to the manufacturer's instructions.
# LPS is a component of a cell wall of Gram-negative bacteria which is recognised by a homodimer of TLR4 and signals to NFκB via both a MyD88- and TRIF-dependent pathway (O'Neill and Bowie, 2007). In order to examine the effect of the peptides on TLR4-dependent gene induction in human cells, the human monocytic lymphoma cell line U937 was used. U937 cells were differentiated into macrophages by treatment with 200 nM PMA for 24 hours before any further manipulations. […]
# THP-1 cells = assay: MTT cell viability assay, THP-1; assay type: cell-based, human; settings: peptide 5 and 10 μM, 10 ng/ml LPS
# Procedure: FIGS. 7A and B are bar charts showing the effect of A464 on TNFα production and cell viability of human THP-1 cells stimulated with LPS. Cells were seeded in 96 well plates (3×10^5 cells/ml) and differentiated with 200 nM PMA for 24 hours before treatment. A464 (SEQ ID NO. 20) was added to the cells at a concentration of 5 or 10 μM 1 hour before stimulating with 10 ng/ml LPS. Supernatants were collected 6 hours after stimulation and assayed for TNFα by ELISA (A) and cells were assayed for viability by the MTT assay (B.). No peptides were added to the control wells (black bars). Data is representative of at least three experiments each performed in triplicate and is expressed as mean±s.d;
# FIGS. 9A and B are bar charts showing the effect of A464 on Pam3CysK4-induced TNFα in human THP-1 cells. Cells were seeded in 96 well plates (3×10^5 cells/ml) and differentiated with 200 nM PMA for 24 hours before treatment. […] Data is representative of at least three experiments each performed in triplicate and is expressed as mean±s.d;
# Cell viability was measured by assessing mitochondrial function using an MTT (3-(4,5-Dimethylthiazol-2-yl)-2,5-diphenyltetrazolium bromide) assay. […] MTT was then removed and 200 μl per well of dimethyl sulphoxide (DMSO) was added and cells incubated for 20 min at 37° C. in the dark, prior to absorbance being read at 595 nm on a spectrophotometer.
# TLR7 = molecular target: T1, TLR7 (Mus musculus, UniProt P58681); assay: murine TLR7 response; assay type: cell-based
# T1 sequence (P58681 27-1050): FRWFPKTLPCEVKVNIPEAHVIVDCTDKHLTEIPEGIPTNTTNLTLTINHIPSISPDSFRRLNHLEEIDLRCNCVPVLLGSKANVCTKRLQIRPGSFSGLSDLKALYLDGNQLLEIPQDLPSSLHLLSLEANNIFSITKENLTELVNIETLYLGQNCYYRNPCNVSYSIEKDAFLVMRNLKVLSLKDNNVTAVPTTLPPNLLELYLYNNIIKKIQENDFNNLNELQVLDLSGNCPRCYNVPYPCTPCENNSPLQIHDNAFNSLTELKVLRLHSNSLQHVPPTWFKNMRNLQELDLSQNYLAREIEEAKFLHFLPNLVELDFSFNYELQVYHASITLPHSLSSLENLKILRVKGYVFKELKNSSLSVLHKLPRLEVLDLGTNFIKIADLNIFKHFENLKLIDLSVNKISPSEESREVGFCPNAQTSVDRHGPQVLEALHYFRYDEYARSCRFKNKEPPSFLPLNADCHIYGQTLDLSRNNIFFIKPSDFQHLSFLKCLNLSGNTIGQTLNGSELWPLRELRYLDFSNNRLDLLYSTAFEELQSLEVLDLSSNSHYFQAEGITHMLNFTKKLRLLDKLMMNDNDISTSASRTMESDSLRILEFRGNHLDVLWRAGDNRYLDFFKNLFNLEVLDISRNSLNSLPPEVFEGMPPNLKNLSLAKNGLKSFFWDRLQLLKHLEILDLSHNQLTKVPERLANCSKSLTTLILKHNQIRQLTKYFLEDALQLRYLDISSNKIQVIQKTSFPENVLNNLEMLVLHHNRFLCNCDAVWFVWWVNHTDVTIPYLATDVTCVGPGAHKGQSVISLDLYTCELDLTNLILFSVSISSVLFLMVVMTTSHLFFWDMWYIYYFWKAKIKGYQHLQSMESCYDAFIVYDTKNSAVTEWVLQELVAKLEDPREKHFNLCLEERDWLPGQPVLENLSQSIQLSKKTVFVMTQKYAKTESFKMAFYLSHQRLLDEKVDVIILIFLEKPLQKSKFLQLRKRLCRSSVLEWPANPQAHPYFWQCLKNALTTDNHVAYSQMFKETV
# Chain of TLR4 (O00206 24-839): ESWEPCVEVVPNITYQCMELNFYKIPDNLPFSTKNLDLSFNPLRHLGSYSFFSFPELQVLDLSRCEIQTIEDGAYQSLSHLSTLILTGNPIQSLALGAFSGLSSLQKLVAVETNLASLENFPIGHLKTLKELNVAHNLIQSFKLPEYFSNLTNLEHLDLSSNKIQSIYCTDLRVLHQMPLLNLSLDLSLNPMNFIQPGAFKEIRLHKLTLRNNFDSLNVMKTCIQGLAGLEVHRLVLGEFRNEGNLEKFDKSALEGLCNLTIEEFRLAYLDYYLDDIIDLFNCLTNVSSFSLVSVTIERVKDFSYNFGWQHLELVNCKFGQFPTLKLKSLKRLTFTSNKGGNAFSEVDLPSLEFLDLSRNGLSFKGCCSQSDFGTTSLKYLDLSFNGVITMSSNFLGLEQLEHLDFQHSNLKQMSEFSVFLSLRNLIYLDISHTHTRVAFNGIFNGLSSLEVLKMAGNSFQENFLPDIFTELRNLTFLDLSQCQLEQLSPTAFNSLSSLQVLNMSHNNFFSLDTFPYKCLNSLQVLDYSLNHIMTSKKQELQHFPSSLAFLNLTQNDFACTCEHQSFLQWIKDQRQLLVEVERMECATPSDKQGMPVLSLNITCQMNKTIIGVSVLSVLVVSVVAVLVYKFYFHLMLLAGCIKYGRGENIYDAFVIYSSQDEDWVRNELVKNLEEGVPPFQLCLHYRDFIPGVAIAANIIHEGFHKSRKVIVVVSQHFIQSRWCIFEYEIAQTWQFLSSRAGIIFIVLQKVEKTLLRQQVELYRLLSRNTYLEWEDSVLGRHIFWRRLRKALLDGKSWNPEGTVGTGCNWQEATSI
# Chain of TLR4 (Q9Y6Y9 17-160 partner limits assumed): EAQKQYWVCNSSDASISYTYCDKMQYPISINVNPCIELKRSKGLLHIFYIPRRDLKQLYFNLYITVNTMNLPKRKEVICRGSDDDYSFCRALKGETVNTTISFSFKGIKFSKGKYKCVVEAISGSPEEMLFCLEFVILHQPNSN
sequence,measurement,setting,value
KYSFKLILAEYRRRRRRRRR [Peptide A464],inhibition of LPS (TLR4)-induced TNFα production,TLR4,potently inhibit TLR4-mediated TNFα production; also recorded: very potent inhibitory effect
same,cytotoxicity (MTT),THP-1 cells,no cytotoxicity
same,inhibition of murine TLR7,TLR7,insensitive
